According to patent US20250092133A1 (Amgen, published 2025):

T1: Hu CDH3 Dom1 mu (aa 108-215), human/mouse chimeric CDH3 on CHO cells (chimeric hu/mu)
T1 chain: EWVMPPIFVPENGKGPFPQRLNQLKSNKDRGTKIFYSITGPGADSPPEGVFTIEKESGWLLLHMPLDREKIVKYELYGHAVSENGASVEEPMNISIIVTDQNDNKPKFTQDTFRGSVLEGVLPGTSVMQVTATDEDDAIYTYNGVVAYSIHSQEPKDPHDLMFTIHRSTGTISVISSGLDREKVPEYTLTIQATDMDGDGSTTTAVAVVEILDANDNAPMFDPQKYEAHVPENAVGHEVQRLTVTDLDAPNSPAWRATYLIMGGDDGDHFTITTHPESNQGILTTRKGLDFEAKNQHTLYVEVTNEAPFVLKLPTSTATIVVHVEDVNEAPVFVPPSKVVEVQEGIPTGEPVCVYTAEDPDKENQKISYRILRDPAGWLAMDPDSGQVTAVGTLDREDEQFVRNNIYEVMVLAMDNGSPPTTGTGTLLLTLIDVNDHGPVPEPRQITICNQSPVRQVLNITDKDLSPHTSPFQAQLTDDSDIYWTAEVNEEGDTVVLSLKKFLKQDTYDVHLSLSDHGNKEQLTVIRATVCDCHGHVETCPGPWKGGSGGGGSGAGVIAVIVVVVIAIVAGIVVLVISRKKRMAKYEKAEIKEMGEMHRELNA

T2: Hu CDH3 Dom2 mu (aa 216-327), human/mouse chimeric CDH3 on CHO cells (chimeric hu/mu)
T2 chain: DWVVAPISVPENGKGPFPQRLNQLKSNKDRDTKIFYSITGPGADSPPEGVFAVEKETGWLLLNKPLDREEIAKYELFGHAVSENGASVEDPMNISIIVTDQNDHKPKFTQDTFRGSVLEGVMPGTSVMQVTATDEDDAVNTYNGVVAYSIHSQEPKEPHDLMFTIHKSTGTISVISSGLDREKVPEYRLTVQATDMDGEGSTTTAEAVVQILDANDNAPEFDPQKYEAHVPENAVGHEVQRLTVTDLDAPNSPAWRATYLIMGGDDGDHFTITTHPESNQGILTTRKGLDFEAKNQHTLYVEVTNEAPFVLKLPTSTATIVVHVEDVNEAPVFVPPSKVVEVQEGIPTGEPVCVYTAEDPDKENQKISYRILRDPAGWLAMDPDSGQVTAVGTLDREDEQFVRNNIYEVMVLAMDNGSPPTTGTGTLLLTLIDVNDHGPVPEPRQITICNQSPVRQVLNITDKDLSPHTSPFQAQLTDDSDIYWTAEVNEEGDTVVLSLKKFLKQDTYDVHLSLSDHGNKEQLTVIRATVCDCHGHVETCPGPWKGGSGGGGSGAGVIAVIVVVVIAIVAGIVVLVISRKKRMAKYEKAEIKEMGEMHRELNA

T3: Hu CDH3 Dom1C mu (aa 180-215), human/mouse chimeric CDH3 on CHO cells (chimeric hu/mu, UniProt P22223 108-681 (human entry))
T3 chain: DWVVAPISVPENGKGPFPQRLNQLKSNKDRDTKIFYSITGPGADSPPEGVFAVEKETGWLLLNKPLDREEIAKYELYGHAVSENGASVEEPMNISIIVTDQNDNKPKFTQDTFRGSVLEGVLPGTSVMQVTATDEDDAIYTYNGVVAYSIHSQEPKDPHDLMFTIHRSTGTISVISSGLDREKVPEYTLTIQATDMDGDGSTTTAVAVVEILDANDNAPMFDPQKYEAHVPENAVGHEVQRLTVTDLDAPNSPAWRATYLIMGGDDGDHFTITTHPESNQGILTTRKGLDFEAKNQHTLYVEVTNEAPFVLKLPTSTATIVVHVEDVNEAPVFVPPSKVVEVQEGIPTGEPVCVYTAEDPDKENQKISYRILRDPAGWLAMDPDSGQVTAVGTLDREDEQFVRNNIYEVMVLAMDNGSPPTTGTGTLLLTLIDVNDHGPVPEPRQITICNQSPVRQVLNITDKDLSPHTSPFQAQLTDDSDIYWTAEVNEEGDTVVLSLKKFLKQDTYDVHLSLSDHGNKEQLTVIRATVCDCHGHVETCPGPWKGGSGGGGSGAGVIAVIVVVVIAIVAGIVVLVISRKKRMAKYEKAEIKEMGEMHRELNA

B1: CDH3-10 scFv (scFv)
scFv: EVQLVEESGGGLVKPGGSLKLSCAASGFTFSSYAMSWVRQTPDKRLEWVATISSGGHYTYYPDSVKGRFTISRDNAKNTLYLQMSSLKSEDTAMYYCASYYYGIPFGYWGQGTTVTVSSGGGGSGGGGSGGGGSELVMTQSPSSLSASLGEGVSLTCRASQDIGINLIWLRQEPDGTIKRLIYDTSSLDSGVPKRFSGSRSGSDYSLTISSLESEDFVHYYCLQYGSSPLTFGAGTKLEIK
B2: CDH3-9 (scFv)
scFv: EVQLVEESGGDLVKPGGSLKLSCAASGFTFSTYGMSWVRQTPDKRLEWVATISSGGHYSYYPDSVKGRFTISRDNAKNTLYLQMSSLKSEDTAMYYCASYYYGSPFAYWGQGTTVTVSSGGGGSGGGGSGGGGSELQMTQSPSSLSASLGERVSLTCRASQDIGSSLNWLQQKPDGTIKRLIYDTSSLDSGVPKRFSGSRSGSDYSLTISSLESEDFGDYYCVQYGSSPLTFGAGTKLEIK
notes: Used as crude periplasmic extract and detected through a FLAG tag; also called CDH3-9 scFv
B3: CDH3-8 (scFv)
scFv: EVQLVEQSGAEVVKPGASVKITCKASGYAFSSYWMNWVRQRPGKGLEWIGHIYPGDGDTNYNGKFKGKVTLTADKSSNTAYMQLSDLTPEDSAVYFCARDRGSFGAWFAYWGQGTTVTVSSGGGGSGGGGSGGGGSELVMTQTPSSLSASLGDRVTISCRASQDISNYLNWYQQKPDGTVKLLIYYTSRLHSGVPSRFSGSGSGTDYSLTISNLEQEDIATYFCQQGNRNPPTFGGGTKLEIK
notes: Used as crude periplasmic extract and detected through a FLAG tag; also called CDH3-8 scFv

Tests used:
[1] = target: T1, Hu CDH3 Dom1 mu (aa 108-215), …; assay: flow cytometry, transfected CHO cells; crude periplasmic scFv extract; anti-FLAG M2 + anti-mouse IgG Fcγ-PE
Experimental: (§1) Cells transfected with human or murine CDH3, or with the chimeric human/mouse CDH3 molecules (see Example 1) were stained with crude, undiluted periplasmic extract containing scFv binding to human/macaque CDH3. […] As negative control, cells were incubated with PBS/2% FCS instead of the periplasmic extract. The samples were measured by flow cytometry.

[2] = target: T2, Hu CDH3 Dom2 mu (aa 216-327), …; assay: flow cytometry, transfected CHO cells; crude undiluted periplasmic scFv extract; anti-FLAG M2 + anti-mouse IgG Fcγ-PE; control PBS/2% FCS
Experimental: as §1

[3] = target: Hu CDH3 Dom3 mu (aa 328-440), human/mouse chimeric CDH3 on CHO cells (chimeric hu/mu); assay: as above
Experimental: as §1

[4] = target: T3, Hu CDH3 Dom1C mu (aa 180-215), …; assay: as above
Experimental: as §1

[5] = target: T4, human CDH3 (P-cadherin) on cells (human, UniProt P22223 108-829); assay: as above
T4 construct: The entry includes signal peptide and pro-peptide; extracellular domain D1 starts at aa 108; also called hu CDH3; hu CDH-3
Experimental: as §1

Row | Binder | binding result [1] | binding result [2] | binding result [3] | binding result [4] | binding result [5]
1 | B1 | no binding | binds | binds | binds | binds
2 | B2 | no binding | binds | binds | binds | binds
3 | B3 | no binding | binds | binds | binds | binds
